Results taken from patent US20150125397A1, “DUAL SPECIFIC BINDING PROTEINS DIRECTED AGAINST IMMUNE CELL RECEPTORS AND AUTOANTIGENS” (ABBVIE INC., priority 2013, published 2015).

Experiments:
AM14 WT B cells = assay: [3H]thymidine incorporation, BCR/TLR9 stimulation of AM14 WT B cells; type: cell-based, mouse; set-up: key to 3H incorporation AM14 WT, relative result: (X)-(XXX) indicates relative results; (XX): (X)-(XXX) indicates relative results; (X)-(XXX) indicates relative results; level of 3H incorporation / 3H incorporation AM14 WT: dose or concentration left out as unconfirmed; details: for 3H incorporation AM14 WT: 24 hours, then 6 hours pulse
Description: (§1) The AM14 B cell receptor (BCR) transgenic mouse has been described previously (Sweet et al. (2010) Autoimmun 43(8): 607-18). Briefly, AM14 is a BCR comprising the AM14 heavy chain and the Vk8 light chain that recognizes murine IgG2a (mIgG2a) of the “a” allotype. Between 95-98% of B cells in a mouse positive for the AM14 heavy chain and Vk8 light chain express the AM14 BCR. To generate AM14 B cells that are deficient in TLR9, TLR7 or FcγRIIB, the AM14 and Vk8 genes were bred to the appropriate knock out mice.
(§2) Primary murine B cells were purified by positive selection using BD Imag™ CD45R/B220 magnetic particles (BD Biosciences, San Jose, Calif.). Briefly, B cells were cultured in RPMI containing, pencillin-streptomycin, β-mercaptoethanol, and 5% heat-inactivated fetal calf serum (FCS) in 96 well flat bottom plates at a density of 4×10^5 cells/well. For stimulation through the BCR and TLR9, B cells were treated with a titration of 0.3 μg/ml-0.03 μg/ml of PA4 or 5 μg/ml to 0.15 μg/ml of a DVD-Ig protein (DVD3751, DVD3752, DVD3754, DVD3755, DVD3759 and DVD3760), unless otherwise noted. Cells were also treated with 1 μg/ml 1826, an experimental ligand for TLR9, as a control. After 24 hours, the cells were pulsed for 6 hours with [3H]thymidine (Perkin Elmer, Waltham Mass.). Incorporation of [3H]thymidine was quantified via a liquid scintillation beta counter (Trilux 1450 MicroBeta, PerkinElmer) according to standard methods.
(§3) DVD-Ig proteins DVD3751-DVD3760 were characterized by ^3H incorporation at […] according to the method of Example 2.6.

DNA = assay: Antinuclear antibody (ANA) test; type: binding; set-up: key to ANA score, relative result: (X)-(XXX) indicates relative results; (XX): (X)-(XXX) indicates relative results; (X)-(XXX) indicates relative results; details: for ANA score / ANA score, relative result: ANA staining at 10 μg/ml
Procedure: The cloned BWR4 and PA4 antibodies as well as the DVD-Ig proteins were tested for ANA reactivity using the ANA test kit. Briefly, the DVD-Ig proteins and antibodies were diluted to […] in blocking buffer (1% BSA in PBS). The DVD-Ig proteins and antibodies were added to separate wells of an ANA slide at 50 μl/well and incubated in a moist chamber for 2 hours at room temperature (RT). The wells were then washed 3× with PBS. To detect bound antibodies, Alexa Fluor 488 conjugated goat α-human IgG (α-hIgG) was then added at a dilution of 1:1,000 and the slide incubated in a moist chamber for 1 hour. Unbound detecting antibody was removed by immersing the slide in a jar containing PBS and incubating for 10 minutes at RT with gentle rocking. The prior step was repeated 2× and 10 μl of Prolong® Gold Antifade was added to each well and a 24 mm×60 mm #1 cover glass seated on top. The covered slide was incubated overnight at RT and then sealed by applying clear nail polish to the edges. Binding of the DVD-Ig proteins and antibodies to the slides was assessed by fluorescence microscopy.
DVD-Ig proteins DVD3751-DVD3760 were characterized by antinuclear antibody (ANA) staining at 10 μg/ml according to the method of Example 2.4.
ANA: HEp-2 human tissue culture substrate slides were incubated with 5 μg/ml of the anti-DNA-IgG2a or the DVD-Ig™ binding protein for 2 hours at RT. The slides were washed and bound antibodies were detected with Alexa-488 goat anti-human antibody or DyLight 488 goat anti-mouse antibody.

AM14 TLR9−/− B cells = assay: [3H]thymidine incorporation, BCR/TLR9 stimulation of AM14 TLR9-/- B cells; type: cell-based, mouse; details: at 5 mg/ml; 24 hours, then 6 hours pulse
Description: as §1, §2, §3

| Molecule | 3H incorporation AM14 WT, relative result (AM14 WT B cells) | 3H incorporation AM14 WT (AM14 WT B cells) | ANA score (DNA) | ANA score, relative result (DNA) | 3H incorporation AM14 TLR9−/− (AM14 TLR9−/− B cells) | level of 3H incorporation (AM14 WT B cells; among DVD3751-DVD3760) | level of ANA staining (DNA; 10 μg/ml, among DVD3751-DVD3760) | ANA, immunofluorescent HEp-2 staining (DNA; Example 6, 5 μg/ml, FIG. 8C) |
| --- | --- | --- | --- | --- | --- | --- | --- | --- |
| DVD3759: DVD-Ig: VD1 mIgM (B7.6), SL linker, VD2 DNA(PA4); heavy SEQ ID NO 64, light 65 (antibody) heavy: QVQLKESGPGLVKPSLTLSLTCTVSGFSLNGYGVIWVRQPPGKGLEWMGVIWGNGNTNYNSTLKSRLSISRDTSKSQVFLKMNNLQTEDTAMYFCARSENYYSSPGYFAYWGQGTLVTVSSASTKGPEVQLVESGGGLVKPGGSLKLSCVASGFTFSTYAMSWVRQTPTKRLEWVATISRGGVSTYYPDTVKGRFTISRDNAKNTLYLQMSSLRSEDTAMYYCARPPTIVTTWFAYWGQGTLVTVSS light: NTVMTQSPTSMFISVGDRVTMNCKASQNVGSDVDWYQQKTGQSPKLLISGTSNRYTGVPDRFTGSGSGTDFTLTISNMQAEDLAVYYCLQYNYNPTFGAGTKLELKRTVAAPSVFIFPPDVVMTQTPLSLPVSLGDQASISCRSSQSLVHSNGNTYLHWYLQKPGQSPKLLIYKVSNRFSGVPDRFSGSGSGTDFTLKISRVEAEDLGAYFCSQSTHVPYTFGGPTRLEIKR | (XX) | (18554) | 3.5 | (XX) | (970) |  |  |  |
| DVD3754: DVD-Ig: VD1 DNA(PA4), SL linker, VD2 mIgM (B7.6); heavy SEQ ID NO 54, light 55 (antibody) heavy: EVQLVESGGGLVKPGGSLKLSCVASGFTFSTYAMSWVRQTPTKRLEWVATISRGGVSTYYPDTVKGRFTISRDNAKNTLYLQMSSLRSEDTAMYYCARPPTIVTTWFAYWGQGTLVTVSSASTKGPQVQLKESGPGLVKPSLTLSLTCTVSGFSLNGYGVIWVRQPPGKGLEWMGVIWGNGNTNYNSTLKSRLSISRDTSKSQVFLKMNNLQTEDTAMYFCARSENYYSSPGYFAYWGQGTLVTVSS light: DVVMTQTPLSLPVSLGDQASISCRSSQSLVHSNGNTYLHWYLQKPGQSPKLLIYKVSNRFSGVPDRFSGSGSGTDFTLKISRVEAEDLGAYFCSQSTHVPYTFGGPTRLEIKRTVAAPSVFIFPPNTVMTQSPTSMFISVGDRVTMNCKASQNVGSDVDWYQQKTGQSPKLLISGTSNRYTGVPDRFTGSGSGTDFTLTISNMQAEDLAVYYCLQYNYNPTFGAGTKLELKR | (XXX) | (35214) | 4.5 | (XXX) | (1597) | highest level of ^3H incorporation | highest level of staining | high ANA score |
